The results in this text go back to patent publication US20180291083A1 (IMMATICS BIOTECHNOLOGIES, published 2018).

To fix the notation:
B1: peptide DANSRTSQL (SEQ ID NO: 113) (peptide)
peptide: DANSRTSQL
notes: synthetic peptide; also called MAP3K1 peptide
B2: peptide HNALRILTF (SEQ ID NO: 114) (peptide)
peptide: HNALRILTF
notes: synthetic peptide; also called NUP210 peptide
B3: peptide ELYQRIYAF (SEQ ID NO: 115) (peptide)
peptide: ELYQRIYAF
notes: synthetic peptide; also called PIK3R6 peptide
B4: peptide RPKKVNTL (SEQ ID NO: 121) (peptide)
peptide: RPKKVNTL
notes: synthetic peptide; also called ZBTB24 peptide
B5: peptide TLKIRAEVL (SEQ ID NO: 116) (peptide)
peptide: TLKIRAEVL
notes: synthetic peptide; also called RALGPS2 peptide
B6: peptide LGHVRYVL (SEQ ID NO: 109) (peptide)
peptide: LGHVRYVL
notes: synthetic peptide; also called AGPAT5 peptide
B7: peptide ILAIRQNAL (SEQ ID NO: 108) (peptide)
peptide: ILAIRQNAL
notes: as for B6
B8: peptide VPPKKHLL (SEQ ID NO: 120) (peptide)
peptide: VPPKKHLL
notes: synthetic peptide; also called TRRAP peptide
B9: peptide APLLRHWEL (SEQ ID NO: 112) (peptide)
peptide: APLLRHWEL
notes: synthetic peptide; also called HLA-DOA peptide
B10: peptide QAAQRTAL (SEQ ID NO: 107) (peptide)
peptide: QAAQRTAL
notes: synthetic peptide; also called AFF3 peptide
B11: peptide YIKTAKKL (SEQ ID NO: 117) (peptide)
peptide: YIKTAKKL
notes: as for B5
B12: peptide FGLARIYSF (SEQ ID NO: 110) (peptide)
peptide: FGLARIYSF
notes: synthetic peptide; also called CDK6 peptide
B13: peptide FEKEKKESL (SEQ ID NO: 118) (peptide)
peptide: FEKEKKESL
notes: synthetic peptide; also called SESN3 peptide
B14: peptide DLRTKEVVF (SEQ ID NO: 119) (peptide)
peptide: DLRTKEVVF
notes: synthetic peptide; also called SIPA1L3 peptide
B15: RYLGKNWSF (peptide)
peptide: RYLGKNWSF
B16: LYSDIGHLL (peptide)
peptide: LYSDIGHLL
B17: IYFSNTHFF (peptide)
peptide: IYFSNTHFF
B18: SYADNILSF (peptide)
peptide: SYADNILSF
B19: RFYLLTEHF (peptide)
peptide: RFYLLTEHF
B20: IFVARLYYF (peptide)
peptide: IFVARLYYF
B21: SFQSKATVF (peptide)
peptide: SFQSKATVF
B22: VFLPSEGFNF (peptide)
peptide: VFLPSEGFNF
B23: TYPQLEGFKF (peptide)
peptide: TYPQLEGFKF
B24: KYIEYYLVL (peptide)
peptide: KYIEYYLVL
B25: KYSSGFRNI (peptide)
peptide: KYSSGFRNI
B26: TYVENLRLL (peptide)
peptide: TYVENLRLL
B27: EYNTIKDKF (peptide)
peptide: EYNTIKDKF
B28: RYLDEINLL (peptide)
peptide: RYLDEINLL
B29: RFPPTPPLF (peptide)
peptide: RFPPTPPLF
B30: YYLSHLERI (peptide)
peptide: YYLSHLERI
B31: LYQDRFDYL (peptide)
peptide: LYQDRFDYL

The target of one assay is T1, human recombinant HLA-B*08:01 with b2m (human).
T1 construct: Peptide-receptive MHC class I used in the pMHC stability assay by ImmunAware; also called MHC heavy chain and b2m
Briefly: pMHC stability assay at 37 C, mean half-life of b2m on heavy chain, grade (T1/2 >2 h = +; >4 h = ++; >6 h = +++; >10 h = ++++). As to the method:
The peptide-MHC stability for HLA-B*08:01 peptides was performed by ImmunAware (Copenhagen, Denmark). The data were obtained using a proximity based, homogenous, real-time assay to measure the dissociation of peptides from HLA class I molecules. First human recombinant HLA-B*08:01 and b2m were expressed in E. coli and purified in a series of liquid chromatography based steps (Ferre et al., 2003; Ostergaard et al., 2001). Afterwards, the stability of a peptide-MHC complex (pMHC) can be determined by measuring the amount of b2m associated with the MHC heavy chain over time at 37° C. (Harndahl et al., 2012). The stability of each pMHC, expressed as the half life of b2m associated with the respective heavy chain, was calculated by fitting the data to a one-phase dissociation equation.
Turning to B1, the “mean half-life (T1/2) of peptide-MHC complex” value (from here on “mean half-life”) is 6 to 10 h.
On the same count and under the same terms, in the case of B2 it was 4 to 6 h; in that of B3, 4 to 6 h; in that of B4, 2 to 4 h.
Regarding B5, the “mean half-life” value lay in the range of 6 to 10 h.
For the molecule B6, the “mean half-life” value was 2 to 4 h.
For B7, the “mean half-life” value was in the range of 4 to 6 h.
Consider B8, for which the “mean half-life” value is 2 to 4 h.
Take B9: the “mean half-life” value was in the range of 2 to 4 h.
Same read-out and setting: the same measure for B10: 4 to 6 h.
Still for that read-out and setting: the same measure for B11: 4 to 6 h; for B12: 2 to 4 h.
Same read-out and setting: in the case of B13 it was 6 to 10 h.
B14: the “mean half-life” value lay within 4 to 6 h.

A further assay has as its target T2, HLA-A*24:02 (human).
T2 construct: Peptide-receptive MHC class I monomer made by UV cleavage of a UV-sensitive ligand
In words: UV ligand exchange ELISA; exchange yield grade. Put shortly: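 Exchange yield assessed by anti-β2m ELISA of UV-exchanged peptide-MHC monomers; absorbance at 450 nm compared with monomer standard curve.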
B15 gave a peptide exchange yield of more than 75%.
The same measure, in the same setting: in the case of B16 it was 50 to 75%; in that of B17, 50 to 75%.
Same read-out and setting: in the case of B18 it was more than 75%.
B19 came in with a peptide exchange yield of 50 to 75%.
On to B20, for which the peptide exchange yield is more than 75%.
On to B21, for which the peptide exchange yield fell in the range of 20 to 50%.
The same measure, in the same setting: the same measure for B22: 50 to 75%; for B23: more than 75%.
B24: the peptide exchange yield was more than 75%.
On the same count and under the same terms, in the case of B25 it was 50 to 75%; in that of B26, 50 to 75%; in that of B27, 50 to 75%.
Consider B28, for which the peptide exchange yield was 50 to 75%.
The same measure, in the same setting: in the case of B29 it was more than 75%.
On the same count and under the same terms, in the case of B30 it was more than 75%; in that of B31, more than 75%.
